From patent US20140120109A1 (Regeneron, published 2014)

Assays:
[1] = molecular target: T1, rat TL1A, soluble, CHO-expressed, residues 76-252 of SEQ ID NO:258 with N-terminal His6-tag (rat, UniProt Q8K3Y7 76-252); assay: SPR 37C, mAb captured; kd set at 1e-6 1/s
T1 construct: also called rTL1A; rTL1A (CHO)
T1 sequence: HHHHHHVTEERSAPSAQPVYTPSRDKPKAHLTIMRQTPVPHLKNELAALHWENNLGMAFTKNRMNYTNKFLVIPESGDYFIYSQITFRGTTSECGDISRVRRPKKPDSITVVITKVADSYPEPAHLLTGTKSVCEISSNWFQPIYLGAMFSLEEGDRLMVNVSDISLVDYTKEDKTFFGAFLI
How it was run: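 Biacore T100 SPR with captured mAb and soluble TL1A/Fhm analyte; ka and kd fitted to a 1:1 model assuming monomeric TL1A. KD = kd/ka; t1/2 (min) = ln2/(60·kd).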

[2] = molecular target: T2, cynomolgus monkey TL1A, soluble, CHO-expressed, residues 72-251 of SEQ ID NO:248 with N-terminal His6-tag (cynomolgus monkey (Macaca fascicularis), UniProt O95150 72-251 (human entry)); assay: SPR 37C, mAb captured; SPR, 37 C
T2 construct: also called MfTL1A; MfTL1A (CHO)
T2 chain: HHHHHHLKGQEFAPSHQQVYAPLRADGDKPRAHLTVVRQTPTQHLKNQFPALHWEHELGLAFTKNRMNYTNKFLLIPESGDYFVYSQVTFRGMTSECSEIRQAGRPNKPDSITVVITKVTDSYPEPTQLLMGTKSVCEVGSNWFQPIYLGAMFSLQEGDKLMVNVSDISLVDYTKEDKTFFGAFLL
Protocol: (§1) Measurements were conducted on a T100 BIACORE™ instrument. […] Kinetic association (kₐ) and dissociation (kd) rate constants were determined by fitting the data to a 1:1 binding model using BIAevaluation 4.1 curve fitting software (BIAcore Life Sciences). Molar concentrations of TL1A/Fhm used in the data fitting assumed a monomeric state for TL1A in solution. Binding dissociation equilibrium constants (KD) and dissociative half-lives (t_{1/2}) were calculated from the kinetic rate constants as: KD (M)=kd/kₐ; and t_{1/2} (min)=[In2/(60*kd)].

[3] = molecular target: T2, cynomolgus monkey TL1A, soluble, …; assay: SPR 25C, mAb captured; SPR, 25 C
[4] = molecular target: T2, cynomolgus monkey TL1A, soluble, …; assay: ELISA, blocks MfTL1A (500 pM) binding hDR3-Fc; blocking of MfTL1A binding to hDR3
Protocol: The ability of antibodies to block human TL1A binding to its cognate receptors, the DR3 and DcR3 receptors, was measured using a competition sandwich ELISA. In addition, blocking of a human TL1A variant FHM (human TL1A Q167R) and the cynomolgus monkey (Macaca fascicularis) TL1A (MfTL1A) protein binding to the human DR3 or DcR3 receptors was measured in the same manner. Constant amounts of biotinylated human TL1A or FHM (both expressed with a 6-His tag in CHO cells) or biotinylated MfTL1A (expressed in CHO cells) were separately titrated with varying amounts of antibodies. The antibody-protein complexes were incubated in solution (1 hr, 25° C.) and then transferred to microtiter plates coated with human DR3 (hDR3) or human DcR3 (hDcR3) expressed as human IgG1 Fc fusion proteins. After one hour at 25° C. the wells were washed, and bound human or monkey TL1A was detected with streptavidin conjugated with horseradish peroxidase (HRP). Wells were developed with a TMB solution to produce a colorimetric reaction and quenched with aqueous sulfuric acid before reading absorbance at 450 nm on a Perkin-Elmer Victor X5 plate reader. A sigmoidal dose-response curve was fit to the data using the Prism™ data analysis package. […]

[5] = molecular target: T3, human TL1A, soluble, CHO-expressed, residues 72-251 of SEQ ID NO:244 with N-terminal His6-tag (human, UniProt O95150 72-251); assay: SPR 25C, mAb captured; kd set at 1e-6 1/s
T3 construct: also called hTL1A; hTL1A (CHO)
T3 sequence: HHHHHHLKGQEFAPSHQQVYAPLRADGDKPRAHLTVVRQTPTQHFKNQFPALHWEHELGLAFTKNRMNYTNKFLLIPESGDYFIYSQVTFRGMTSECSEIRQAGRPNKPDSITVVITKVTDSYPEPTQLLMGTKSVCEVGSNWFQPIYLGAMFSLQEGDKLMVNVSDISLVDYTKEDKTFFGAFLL
Protocol: as §1

[6] = molecular target: T4, Fhm, hTL1A(Q167R), soluble, CHO-expressed, residues 72-251 of SEQ ID NO:246 (human, UniProt O95150 72-251); assay: ELISA, blocks FHM (10 pM) binding hDcR3-Fc; blocking of FHM binding to DcR3
T4 construct: also called Fhm (CHO); FHM (CHO)
T4 chain: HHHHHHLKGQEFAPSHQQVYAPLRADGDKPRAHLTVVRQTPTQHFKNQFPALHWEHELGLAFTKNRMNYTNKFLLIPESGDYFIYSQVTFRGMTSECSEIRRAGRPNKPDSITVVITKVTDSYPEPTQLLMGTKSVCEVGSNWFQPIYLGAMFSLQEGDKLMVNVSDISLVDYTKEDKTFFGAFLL
Protocol: (§2) The ability of antibodies to block human TL1A binding to its cognate receptors, the DR3 and DcR3 receptors, was measured using a competition sandwich ELISA. In addition, blocking of a human TL1A variant FHM (human TL1A Q167R) and the cynomolgus monkey (Macaca fascicularis) TL1A (MfTL1A) protein binding to the human DR3 or DcR3 receptors was measured in the same manner. Constant amounts of biotinylated human TL1A or FHM (both expressed with a 6-His tag in CHO cells) or biotinylated MfTL1A (expressed in CHO cells) were separately titrated with varying amounts of antibodies. The antibody-protein complexes were incubated in solution (1 hr, 25° C.) and then transferred to microtiter plates coated with human DR3 (hDR3) or human DcR3 (hDcR3) expressed as human IgG1 Fc fusion proteins. After one hour at 25° C. the wells were washed, and bound human or monkey TL1A was detected with streptavidin conjugated with horseradish peroxidase (HRP). Wells were developed with a TMB solution to produce a colorimetric reaction and quenched with aqueous sulfuric acid before reading absorbance at 450 nm on a Perkin-Elmer Victor X5 plate reader. A sigmoidal dose-response curve was fit to the data using the Prism™ data analysis package. […] Both fully human anti-hTL1A mAbs and comparator antibodies, i.e., control mAb1 (an anti-hTL1A antibody with heavy and light chain variable domains having the amino acid sequences corresponding to SEQ ID NOS:21 and 27, respectively, of US 2009/0280116) and control mAb3 (an anti-hTL1A antibody with heavy and light chain variable domains having the amino acid sequences corresponding to SEQ ID NOS:57 and 48, respectively, of US 2009/0280116), were included in the study. NB: No binding under the conditions tested; NT: Not tested. Concentrations of biotinylated soluble ligands: (1) 150 pM; (2) 500 pM; (3) 10 pM; and (4) 50 pM.

[7] = molecular target: T4, Fhm, hTL1A(Q167R), soluble, …; assay: ELISA, blocks FHM (150 pM) binding hDR3-Fc; blocking of FHM binding to hDR3
Protocol: as §2

B1: H4H1818N (antibody, human IgG4 S228P, V domains shown)
VH: RLQLVESGGGLVKPGGSLKLSCAASGFTISDYYMSWIRQAPGKGLEWVSYIGGSGSTIYYADSVKGRFTISRDNAKNSLYLQMNSLRAEDTAVYYCAREDADSYYYYGMDVWGQGTTVTVSS
VL: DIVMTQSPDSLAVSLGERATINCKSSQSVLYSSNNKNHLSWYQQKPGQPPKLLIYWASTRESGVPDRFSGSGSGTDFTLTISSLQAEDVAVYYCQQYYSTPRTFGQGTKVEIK
notes: human IgG4(S108P) form of H2M1818N
[1]
  Kd: ≤ 0.00061 nM
  t1/2: ≥ 192 h

B2: H4H1750P (antibody, human IgG4 S228P, V domains shown)
VH: QVQLVESGGGVVQPGRSLRLSCVASGFTFSNYGMHWVRQAPGKGLEWVAVISYDGNNDLYSDSVKGRFTISRDNAKNALSLQMTSLRAEDTAVYYCARDSTMTPYYYHGIDVWGQGTTVTVSA
VL: DIQMTQSPSSLSASVGDRVTITCRASQDIRNDLGWYQQKPGKAPKRLIYAASSLQSGVPSRFSGSGSGTDFTLTISSLQPEDFATYYCLQHNSYPPTFGQGTKVEIK
[2]
  Kd: 17.1 nM
  t1/2: 11 min
[3]
  Kd: 8.6 nM
  t1/2: 21 min
[4]
  IC50: 5.21 nM
[5]
  t1/2: ≥ 192 h

B3: H4H1681N (antibody, human IgG4 S228P, V domains shown)
VH: EVQLLESGGGLVQPGKSLRLSCAVSGFTFSTYGMNWVRQAPGKGLEWVSSISGTGRTTYHADSVQGRFTVSRDNSKNILYLQMNSLRADDTAVYFCTKERGDYYYGVFDYWGQGTLVTVSS
VL: DIQMTQSPSTLSASVGDRVTITCRASQTISSWLAWYQQTPEKAPKLLIYAASNLQSGVPSRFSGSGSGTEFTLTISSLQPDDFATYYCQQYHRSWTFGQGTKVEIT
[6]
  IC50: 0.09 nM

B4: H4H1805N (antibody, human IgG4 S228P, V domains shown)
VH: QVQLQQWGAGLLKPSETLSLTCAVYGGSFTGFYWSWIRQPPGKGLEWIGEINHRGNTNYNPSLKSRVTMSVDTSKNQFSLNMISVTAADTAMYFCASPFYDFWSGSDYWGQGTLVTVSS
VL: DIMLTQTPLTSPVTLGQPASISCKSSQSLVHSDGNTYLSWLQQRPGQPPRLLFYKISNRFSGVPDRFSGSGAGTDFTLKISRVEAEDVGVYYCMQATQFPLTFGGGTKVEIK
notes: human IgG4(S108P) form of H2M1805N
[6]
  IC50: 0.436 nM

B5: H4H1804N (antibody, human IgG4 S228P, V domains shown)
VH: QVQLHQWGAGLLKPSETLSLTCAVSGVSFSDYHWAWIRQSPGKGLEWIGDINHRGRTNYNPSLKSRVTISLDTSGNPFSLKLTSVTAADTAVYYCARDFPNWVFDSWGQGILVTVSS
VL: EIVLSQSPGTLSLSPGERATLSCRASQSVSSSFLAWYQQYPGQAPRLLIYGASRRATGIPDRFRGSGSGTDFTLTISRLEPEDFAVYYCQQYGSSPLTFGGGTKVENK
notes: human IgG4(S108P) form of H2M1804N
[7]
  IC50: 0.069 nM
